The test system of assay [1] is mouse TRAP promoter (SEQ ID NO:12). The experiment in a line: mouse TRAP promoter/luciferase reporter in 293/EBNA cells. The format is cell-based. Conditions: 24 hours after transfection, 0.4 ng RANK vector, 20 ng RANK-L vector. From the text: (§1) This example describes the activation of the TRAP promoter. A 2.6 kb DNA fragment containing the human TRAP promoter was obtained by digesting the plasmid pBL2HT2.2 with the restriction endonuclease ApaI. The cloning of the human TRAP gene 5′ region and the construction of pBL2HT2.2 are fully described in Reddy et al. (Bone 16:587-593 (1995)). A DNA containing the mouse TRAP promoter (SEQ ID NO:12) and a DNA containing the murine MMP-9 promoter (SEQ ID NO:11) also were used for these experiments. DNAs containing the promoters were fused to the luciferase reporter gene. These promoter/reporter constructs were transfected into human 293/EBNA cells along with various combinations of expression vectors that encoded full-length human RANK (SEQ ID NO:2) and human full-length RANK-L proteins (SEQ ID NO:6).
For the mouse TRAP promoter (SEQ ID NO:12), 2×10^5 293/EBNA cells were transfected using DEAE/dextran with 40 ng of a plasmid encoding approximately 2 kb of the mouse TRAP promoter (SEQ ID NO:12) fused to a luciferase reporter, 20 ng of an expression vector encoding RANK-L (SEQ ID NO:6), and 0.4 ng of an expression vector encoding RANK (SEQ ID NO:2). Twenty four hours after transfection, luciferase activity in cell lysates was measured according to manufacturer's instructions (Promega) using a EG&G/Berthold luminometer. […]
For orientation: Reporter assays use an easily measured gene product as a stand-in for the process of interest.

Assay [2] deals with murine MMP-9 promoter (SEQ ID NO:11). The experiment in a line: murine MMP-9 promoter/luciferase reporter in 293/EBNA cells. The assay is classed as cell-based. Conditions: 40 ng reporter.
Text: as §1
For the murine MMP-9 promoter experiments, 4.1 kb of the murine MMP-9 promoter (SEQ ID NO:11) were fused to a luciferase gene and transfected (40 ng) into 293/EBNA cells. Transfection of either RANK (SEQ ID NO:2) alone or the combination of RANK (SEQ ID NO:2) plus RANK-L (SEQ ID NO:6) increased reporter expression 2.5-fold.

The next assay has as its system RANK. As to the kind of experiment: radioimmune assay of reporter surface expression in 293/EBNA cells. The assay is classed as cell-based. Particulars: 48 hours after transfection. The protocol: Additionally, surface expression of human IL-2α receptor can be analyzed using a radioactive antibody against IL-2α receptor. For the mIL-4R-specific radioimmune assay, mouse anti-human IL-2α monoclonal antibody reactive with mIL-4R was labeled with ^125I via a Chloramine T conjugation method; the resulting specific activity is typically […]. After 48 hours, cells transfected with pGL2-MMP-9/human IL-2 receptor were washed once with media (DMEM, 12 5% FBS). Non-specific binding sites were blocked by the addition of pre-warmed binding media containing 5% non-fat dry milk and incubation at 37° C./5% CO2 in a tissue culture incubator for one hour. The blocking media was decanted and binding buffer containing ^125I anti-mIL-4R (clone M1; rat IgG1) was added to the cells and incubated with rocking at room temperature for 1 hour. After incubation of the cells with the radio-labeled antibody, cells were washed extensively with binding buffer (2 X) and twice with phosphate-buffered saline (PBS). Cells were lysed in 1 ml of 0.5M NaOH, and total radioactivity measured with a gamma counter.

Assay [3] has as its system primary hematopoietic cells from the RANK −/− mice. The experiment in a line: F-actin ring formation, phalloidin staining. The format is cell-based, mouse. Conditions: 5 days in 40 ng/ml CSF-1 and 200 ng/ml mRANK-L. The source says: To detect F-actin rings, cells are fixed, such as by exposure to 3% paraformaldehyde, and visualized by staining cells with a fluorescent probe that binds specifically with actin. A suitable fluorescent tag is phalloidin, which can be obtained from Molecular Probes, Eugene, Oreg. The fluorescent signal is detected, for example, using a standard fluorescent microscope, and the number of cells having F-actin rings is visually quantified. An F-actin ring is identified as a continuous ring of F-actin at the periphery of a cell, and these distinct structures are visible through a microscope.
A procedure to detect F-actin rings was carried out as follows. Primary hematopoietic cells from the RANK −/− mice were infected with retroviral constructs encoding either the full-length human RANK cDNA or the RANK/TRAF6 binding mutant (RANK Δ340-421). Cells were cultured on LabTek Chamber slides with #1 borosilicate coverglasses (Nalge/Nunc). After incubation for 5 days in MEM containing 10% fetal bovine serum containing 40 ng/ml CSF-1 and 200 ng/ml mRANK-L. The media was aspirated, washed twice in PBS and then fixed in a solution of 3% paraformaldehyde for 10 minutes, followed by quenching in 50 mM NH4Cl. […] The fluorescent signal was detected using a standard fluorescent microscope, and F-actin rings were identified as continuous rings of F-actin at the periphery of individual cells.

Assay [4] has as its system spleen cells from RANK −/− mice. As to the kind of experiment: CaPO4 resorption (pit formation) assay. The format is cell-based, mouse. Particulars: 5 days in 40 ng/ml CSF-1 and 200 ng/ml mRANK-L on CaPO4 film; listed as full-length RANK. From the text: The resorption of CaPO4, upon which this assay is based, is considered to be a measure of osteoclast activity. Spleen cells were isolated from 3-6 week old RANK −/− mice and treated as described in Example 9 to remove cells expressing the CD3, Ter-119, and GR-1 antigens. Cells not expressing any of these antigens were harvested and infected as described in Example 9 with retroviral vector particles containing full-length or TRAF6 binding site deletion mutants of RANK.
Following infection, the spleen cells were harvested and plated in MEM containing 10% fetal bovine serum containing 40 ng/ml CSF-1 and 200 ng/ml mRANK-L onto 16 well quartz slides coated with a thin film of CaPO4 (Osteologic, BD Biosystems). After 5 days in culture, the slides were washed, the cells removed by washing with bleach, and the slides washed again with buffer. […] The number of pits in the CaPO4 film is a measure of the extent to which the RANK-L induced the cells grown on that slide to differentiate into osteoclasts.
If desired, the CaPO4 film can be stained using a 0.5% solution of alizarin red for 4 to 5 minutes followed by washing in water. After staining, the resorptive lacunae are visualized by phase contrast microscopy as a clear area on a red background.

“Also recorded” adds a separate entry of the source.

This is an account of results in US7572594B2, “Screening assays for agonists or antagonists or receptor activator of NF-κB” (Immunex Corporation, priority 2000, dated 2009).

B1: wild type RANK: full-length human RANK, receptor activator of NF-κB (SEQ ID NO:2), expressed from vector or retrovirus (protein, listed as Homo sapiens)
chain: MAPRARRRRPLFALLLLCALLARLQVALQIAPPCTSEKHYEHLGRCCNKCEPGKYMSSKCTTTSDSVCLPCGPDEYLDSWNEEDKCLLHKVCDTGKALVAVVAGNSTTPRRCACTAGYHWSQDCECCRRNTECAPGLGAQHPLQLNKDTVCKPCLAGYFSDAFSSTDKCRPWTNCTFLGKRVEHHGTEKSDAVCSSSLPARKPPNEPHVYLPGLIILLLFASVALVAAIIFGVCYRKKGKALTANLWHWINEACGRLSGDKESSGDSCVSTHTANFGQQGACEGVLLLTLEEKTFPEDMCYPDQGGVCQGTCVGGGPYAQGEDARMLSLVSKTEIEEDSFRQMPTEDEYMDRPSQPTDQLLFLTEPGSKSTPPFSEPLEVGENDSLSQCFTGTQSTVGSESCNCTEPLCRTDWTPMSSENYLQKEVDSGHCPHWAASPSPNWADVCTGCRNPPGEDCEPLVGSPKRGPLPQCAYGMGLPPEEEASRTEARDQPEDGADGRLPSSARAGAGSGSSPGGQSPASGNVTGNSNSTFISSGQVMNFKGDIIVVYVSQTSQEGAAAAAEPMGRPVQEETLARRDSFAGNGPRFPDPCGGPEGLREPEKASRPVQEQGGAKA
In the case of B1, the figures for the “increase of reporter expression (luciferase)” value in assay [1] and in assay [2] were “approximately 2 fold” and 2.5 fold, respectively. The “transcriptional activation, reporter detected on the cell surface” value with RANK is reported as “resulted in transcription of muIL-4R”. Besides, in assay [3], the “cells with F-actin rings” value is “more than 50%”. Besides, the CaPO4 resorption entry in assay [4] is “resorbed the CaPO4 matrix; also recorded: high levels of CaPO4 resorption”.
